Results: patent publication US6383734

Assays:
[1] = biological target: myc-tagged wild type Raf-1 (UniProt P04049)
[2] = biological target: myc-tagged wild type Raf-1 (UniProt P04049); experiment: cell-based or functional assay
[3] = biological target: Raf-CX (Raf modified to translocate to the plasma membrane independently of Ras) (UniProt P04049); experiment: cell-based or functional assay
[4] = biological target: recombinant His-tagged mouse PAK3 from Sf9 cells (UniProt Q61036)
[5] = biological target: Raf-CR3 (wild type), recombinant Raf-1 catalytic fragment, calmodulin binding protein fusion (UniProt P04049)
Raf-CR3[D338E339] = Raf-CR3[D338E339] (UniProt P04049)

Sequence of p37, purified 37-kD Raf-1 serine 338/339 protein kinase from rat spleen (truncated PAK3) (chain, as listed by the source): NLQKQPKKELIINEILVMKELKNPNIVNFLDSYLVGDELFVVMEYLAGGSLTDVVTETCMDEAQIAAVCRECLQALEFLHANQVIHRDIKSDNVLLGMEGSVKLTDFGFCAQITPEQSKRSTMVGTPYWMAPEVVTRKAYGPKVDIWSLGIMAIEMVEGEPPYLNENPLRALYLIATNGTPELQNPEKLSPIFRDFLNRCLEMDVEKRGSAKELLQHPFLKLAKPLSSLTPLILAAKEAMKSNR
Sequence of recombinant His-tagged mouse PAK3 from Sf9 cells (Q61036 other isoform, or with tags, fused parts or gaps): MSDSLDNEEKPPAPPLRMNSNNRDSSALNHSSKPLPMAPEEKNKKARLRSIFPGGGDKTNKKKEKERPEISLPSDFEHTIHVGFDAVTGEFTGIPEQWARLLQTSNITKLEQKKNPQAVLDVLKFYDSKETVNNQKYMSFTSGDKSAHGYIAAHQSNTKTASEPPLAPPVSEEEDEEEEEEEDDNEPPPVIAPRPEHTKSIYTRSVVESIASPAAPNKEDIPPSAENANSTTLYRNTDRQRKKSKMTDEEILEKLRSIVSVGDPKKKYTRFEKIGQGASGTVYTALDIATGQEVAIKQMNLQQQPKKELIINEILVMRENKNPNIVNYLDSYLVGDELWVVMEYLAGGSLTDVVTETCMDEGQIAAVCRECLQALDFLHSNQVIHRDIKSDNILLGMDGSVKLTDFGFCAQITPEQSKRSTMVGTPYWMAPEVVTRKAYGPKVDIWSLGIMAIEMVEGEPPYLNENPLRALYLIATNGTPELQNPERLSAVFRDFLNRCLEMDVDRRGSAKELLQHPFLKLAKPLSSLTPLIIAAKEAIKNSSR

constitutively active HA-tagged PAK3[S91,A93,A95]
increase in the amount of phosphorylated serine 338 (immunoprecipitation with phosphoserine 338-specific antibody, 9E10 blot) [1]: 2.5 and 6.5-fold increases in the amount of phosphorylated serine 338

dominant negative HA-tagged PAK3[R278] (enzyme)
reduction of the Ras[V12]-inducible activation of Raf-1 in COS-7 cells [2]: > 50% | reduction of the intrinsic Raf kinase activity in COS-7 cells [3]: > 70%

GST-Cdc42 charged with GTPγS
stimulation of the Raf-1 peptide and Raf-CR3 serine 338/339 kinase activity of PAK3 [4]: stimulated up to six-fold by co-incubation with GST-Rac-GTPγS or GST-Cdc42-GTPγS

p37, purified 37-kD Raf-1 serine 338/339 protein kinase from rat spleen (truncated PAK3)
phosphorylation of Raf-CR3 (32P, SDS-PAGE, autoradiography) [5]: The purified kinase phosphorylated the wild type Raf-CR3 | share of incorporated 32P in the serine 338/339 tryptic peptides [5]: Over 95% of the 32P incorporated within the phosphorylated Raf-CR3 was associated with the serine 338/339 tryptic peptides | specific activity (Raf-1 peptide phosphorylation) (Raf-1 (331-345) peptide): extremely high specific activity (19,500 pmol/min/mg) | phosphorylation of Raf-CR3 (32P, SDS-PAGE, autoradiography) (Raf-CR3[D338E339]): failed to significantly phosphorylate the Raf-CR3[D338E339] mutant
